Results published in publication PMC4357730.

Legend:
hTDG-N140A (human) = test: AFM; conditions: AFM: 25 mM HEPES pH 7.5, 25 mM Na acetate, 10 mM Mg acetate, RT, 2-AP hTDG: 20 mM HEPES pH 7.0, 0.2 mM EDTA, 2.5 mM MgCl2, 100 mM NaCl, 25 C, 2-AP hOGG1: 50 mM …, scale: specificity S
hTDG-R275A R275A (human) = hTDG-R275A R275A (human) (UniProt Q13569); test: AFM; conditions: dUF at insert position 9 opposite G (non-cleavable G:U analog); AFM: 25 mM HEPES pH 7.5, 25 mM Na acetate, 10 mM Mg acetate, RT; 2-AP hTDG: 20 mM HEPES pH 7.0, 0.2 mM EDTA, 2.5 mM MgCl2, 100 mM NaCl, 25 C; 2-AP hOGG1: 50 mM …; scale: specificity S
hTDG-R275A R275A (human), sequence (Q13569 whole entry R275A): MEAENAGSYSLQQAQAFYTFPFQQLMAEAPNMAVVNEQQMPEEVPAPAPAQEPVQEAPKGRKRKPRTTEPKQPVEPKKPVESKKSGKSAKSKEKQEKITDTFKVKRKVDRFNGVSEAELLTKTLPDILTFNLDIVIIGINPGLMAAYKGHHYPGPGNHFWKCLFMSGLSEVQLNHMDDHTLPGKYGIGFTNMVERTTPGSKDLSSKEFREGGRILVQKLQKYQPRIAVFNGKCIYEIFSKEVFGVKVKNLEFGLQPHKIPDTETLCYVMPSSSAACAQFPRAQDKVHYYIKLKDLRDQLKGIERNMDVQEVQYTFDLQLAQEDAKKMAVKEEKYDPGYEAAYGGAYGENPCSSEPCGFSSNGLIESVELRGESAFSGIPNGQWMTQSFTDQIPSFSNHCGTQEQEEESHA

549 bp G:T DNA showed a binding signal (hTDG-N140A (human)) of 305.

For 549 bp G:U DNA, the binding signal (hTDG-N140A (human); dU at insert position 9 opposite G) was 163.

549 bp G:UF DNA showed a binding signal (hTDG-R275A R275A (human)) of 358.
